T1: PTH1R (Homo sapiens, UniProt Q03431)
T1 sequence (Q03431 27-593): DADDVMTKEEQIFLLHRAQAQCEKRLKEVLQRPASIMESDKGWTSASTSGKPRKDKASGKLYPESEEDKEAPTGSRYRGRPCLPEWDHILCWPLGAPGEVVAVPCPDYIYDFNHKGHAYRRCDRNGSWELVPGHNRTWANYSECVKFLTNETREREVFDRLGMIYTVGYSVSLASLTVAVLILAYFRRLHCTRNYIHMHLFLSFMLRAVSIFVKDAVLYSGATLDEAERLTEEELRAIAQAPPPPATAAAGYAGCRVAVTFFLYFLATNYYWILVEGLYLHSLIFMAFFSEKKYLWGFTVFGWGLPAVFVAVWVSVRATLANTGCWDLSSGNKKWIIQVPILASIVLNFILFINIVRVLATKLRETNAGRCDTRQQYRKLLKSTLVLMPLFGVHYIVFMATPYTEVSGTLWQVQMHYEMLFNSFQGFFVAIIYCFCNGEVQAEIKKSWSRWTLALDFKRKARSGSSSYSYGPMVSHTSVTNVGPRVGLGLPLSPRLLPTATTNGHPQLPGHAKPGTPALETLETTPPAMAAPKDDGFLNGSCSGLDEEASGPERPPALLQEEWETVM


Tests used:
PTH1R = biological target: T1, PTH1R; assay: Co-immunoprecipitation of exogenous LRP5/LRP6 constructs with PTH1R in HEK293 cells; format: cell-based; settings: co-expressed with PTH1R in HEK293 cells
Excerpt: PTH1R tagged with HA was subcloned into pcDNA3.1. cDNAs from human LRP5 (Mao et al., Mol. Cell. 7:801-9 (2001)) and LRP6 (Tamai et al., Nature 407:530-35 (2000)) tagged with HA and VSVG were subcloned into pCMV and pCS2^+, respectively. LRP6N+T (LRP6 N-terminal plus the transmembrane domain) and LRP6T+C (LRP6 transmembrane domain plus C-terminal) tagged with VSVG were subcloned into pCS2^+. LRP6N+1479m, LRP6N+1490m, LRP6N+1493m and LRP6N+1496m were generated by mutagenesis of either the serine (at amino acid 1490 or amino acid 1496) or threonine (at amino acid 1479 or amino acid 1493) to alanine LRP6N-IgG was generated by fusing the LRP6 extracellular domain with IgG (Tamai et al., Nature 407:530-35 (2000)). si-GFP (Wan et al., Am. J. Pathol. 166:1379-92 (2005)) and si-LRP6 plasmids were generated using a BS/U6 vector. Briefly, a 22-nucleotide oligo (oligo 1) corresponding to nucleotides 2981 to 3002 of the human LRP6 coding region was first inserted into the BS/U6 vector digested with ApaI (blunted) and HindIII. The inverted motif that contains the six-nucleotide spacer and five Ts (oligo 2) was then subcloned into the HindIII and EcoRI sites of the intermediate plasmid to generate BS/U6/LRP5/6.
(§1) Cells were harvested in cavitation buffer (5 mM HEPES, pH 7.4, 3 mM MgCl2, 1 mM EGTA, 250 mM sucrose) containing protease and phosphatase inhibitors and homogenized by nitrogen cavitation (200 p.s.i., for 5 minutes) in a cell disruption bomb (Parr Instrument Co.; Moline, Ill.). The cell homogenate was centrifuged twice at 700 g for 10 minutes to pellet the nuclei. The supernatant was further centrifuged at 100,000 g (Beckman SW50.1 rotor) for 1 hour to separate the membrane and cytosol fractions, and the resulting membrane pellet was washed three times with cavitation buffer before use in the assays (Zhang et al., Biochem. J. 343:541-9 (1999)). Immunoprecipitation and Western blot analysis of cell lysates were performed as described previously (Wan et al., Am. J. Pathol. 166:1379-92 (2005)).

[1] = system: luciferase reporter bearing TCF/LEF binding elements; assay: TCF/LEF luciferase reporter assay in UMR-106 cells; format: cell-based, rat; settings: UMR-106 cells treated with PTH
Excerpt: HEK293, UMR-106 and mouse embryonic fibroblast (MEF) cells were maintained in Dulbecco's Modified Eagle Medium (DMEM) with 10% Fetal Calf Serum (FCS). Mouse Wnt3a conditioned medium (Wnt3a CM) was produced from mouse L cells stably transfected with mouse Wnt3a (American Type Culture Collection; Manassas, Va.) and control conditioned medium (Control CM) was from non-transfected L cells. IgG, LRP6N-IgG, DKK1, Sclerostin, VSVG-LRP6N and Myc-Fz8CRD conditioned media were produced from HEK 293 cells transfected with the individual plasmids. Transfections were carried out using lipofectamine reagent (Invitrogen; Carlsbad, Calif.). Luciferase assays were carried out in either UMR-106 or HEK 293 cells as described previously (Wan et al., Am. J. Pathol. 166:1379-92 (2005)), with 0.3 μg of TCF-Luc reporter plasmid plus 50 ng of Renilla luciferase plasmid (internal control) per well in the 12-well plate. Experiments were repeated at least three times with triplicate for each experiment.

β-catenin = assay: Western blot of cytosolic β-catenin in HEK 293 cells; format: cell-based; settings: for effect on PTH-elevated β-catenin level (accumulation in cytosol/cytoplasm): PTH-treated cells (FIG. 5 cells not stated; FIG. 10, 27 HEK293)
Experimental: as §1

Molecule | binding of LRP6 construct to PTH1R (IP assay) (PTH1R) | effect on PTH-stimulated TCF/LEF luciferase (transcriptional) activity [1] | effect on PTH-elevated β-catenin level (accumulation in cytosol/cytoplasm) (β-catenin) | effect on Wnt3a-elevated β-catenin level (β-catenin; Wnt3a-treated cells (FIG. 5 cells not stated; FIG. 27 HEK293))
LRP6T+C: truncated LRP6 containing the transmembrane and intracellular domains, tagged with VSVG (protein, left off: small tags and cut ends, truncated LRP6 containing the transmembrane and intracellular domains, tagged with VSVG) TNTVGSVIGVIVTIFVSGTVYFICQRMLCPRMKGDGETMTNDYVVHGPASVPLGYVPHPSSLSGSLPGMSRGKSMISSLSIMGGSSGPPYDRAHVTGASSSSSSSTKGTYFPAILNPPPSPATERSHYTMEFGYSSNSPSTHRSYSYRPYSYRHFAPPTTPCSTDVCDSDYAPSRRMTSVATAKGYTSDLNYDSEPVPPPPTPRSQYLSAEENYESCPPSPYTERSYSHHLYPPPPSPCTDSS | could barely be detected | – | – | –
LRP6N+T: truncated LRP6 containing the extracellular and transmembrane domains, tagged with VSVG (protein, left off: small tags and cut ends, truncated LRP6 containing the extracellular and transmembrane domains, tagged with VSVG) APLLLYANRRDLRLVDATNGKENATIVVGGLEDAAAVDFVFSHGLIYWSDVSEEAIKRTEFNKTESVQNVVVSGLLSPDGLACDWLGEKLYWTDSETNRIEVSNLDGSLRKVLFWQELDQPRAIALDPSSGFMYWTDWGEVPKIERAGMDGSSRFIIINSEIYWPNGLTLDYEEQKLYWADAKLNFIHKSNLDGTNRQAVVKGSLPHPFALTLFEDILYWTDWSTHSILACNKYTGEGLREIHSDIFSPMDIHAFSQQRQPNATNPCGIDNGGCSHLCLMSPVKPFYQCACPTGVKLLENGKTCKDGATELLLLARRTDLRRISLDTPDFTDIVLQLEDIRHAIAIDYDPVEGYIYWTDDEVRAIRRSFIDGSGSQFVVTAQIAHPDGIAVDWVARNLYWTDTGTDRIEVTRLNGTMRKILISEDLEEPRAIVLDPMVGYMYWTDWGEIPKIERAALDGSDRVVLVNTSLGWPNGLALDYDEGKIYWGDAKTDKIEVMNTDGTGRRVLVEDKIPHIFGFTLLGDYVYWTDWQRRSIERVHKRSAEREVIIDQLPDLMGLKATNVHRVIGSNPCAEENGGCSHLCLYRPQGLRCACPIGFELISDMKTCIVPEAFLLFSRRADIRRISLETNNNNVAIPLTGVKEASALDFDVTDNRIYWTDISLKTISRAFMNGSALEHVVEFGLDYPEGMAVDWLGKNLYWADTGTNRIEVSKLDGQHRQVLVWKDLDSPRALALDPAEGFMYWTEWGGKPKIDRAAMDGSERTTLVPNVGRANGLTIDYAKRRLYWTDLDTNLIESSNMLGLNREVIADDLPHPFGLTQYQDYIYWTDWSRRSIERANKTSGQNRTIIQGHLDYVMDILVFHSSRQSGWNECASSNGHCSHLCLAVPVGGFVCGCPAHYSLNADNRTCSAPTTFLLFSQKSAINRMVIDEQQSPDIILPIHSLRNVRAIDYDPLDKQLYWIDSRQNMIRKAQEDGSQGFTVVVSSVPSQNLEIQPYDLSIDIYSRYIYWTCEATNVINVTRLDGRSVGVVLKGEQDRPRAVVVNPEKGYMYFTNLQERSPKIERAALDGTEREVLFFSGLSKPIALALDSRLGKLFWADSDLRRIESSDLSGANRIVLEDSNILQPVGLTVFENWLYWIDKQQQMIEKIDMTGREGRTKVQARIAQLSDIHAVKELNLQEYRQHPCAQDNGGCSHICLVKGDGTTRCSCPMHLVLLQDELSCGEPPTCSPQQFTCFTGEIDCIPVAWRCDGFTECEDHSDELNCPVCSESQFQCASGQCIDGALRCNGDANCQDKSDEKNCEVLCLIDQFRCANGQCIGKHKKCDHNVDCSDKSDELDCYPTEEPAPQATNTVGSVIGVIVTIFVSGTVYFI | associated with PTH1R as effectively as did full-length LRP6 | – | – | –
DKK1: secreted protein binding to LRP6 at the extracellular domain (protein, UniProt O94907 32-266, looked up) Dickkopf-related protein 1: TLNSVLNSNAIKNLPPPLGGAAGHPGSAVSAAPGILYPGGNKYQTIDNYQPYPCAEDEECGTDEYCASPTRGGDAGVQICLACRKRRKRCMRHAMCCPGNYCKNGICVSSDQNHFRGEIEETITESFGNDHSTLDGYSRRTTLSSKMYHTKGQEGSVCLRSSDCASGLCCARHFWSKICKPVLKEGQVCTKHRRKGSHGLEIFQRCYCGEGLSCRIQKDHHQASNSSRLHTCQRH | – | disrupted | disrupted | reduced
sclerostin: secreted protein binding to LRP6 at the extracellular domain (protein, UniProt Q9BQB4 24-213, looked up) Sclerostin: QGWQAFKNDATEIIPELGEYPEPPPELENNKTMNRAENGGRPPHHPFETKDVSEYSCRELHFTRYVTDGPCRSAKPVTELVCSGQCGPARLLPNAIGRGKWWRPSGPDFRCIPDRYRAQRVQLLCPGGEAPRARKVRLVASCKCKRLTRFHNQSELKDFGTEAARPQKGRKPRPRARSAKANQAELENAY | – | disrupted | disrupted | –

From patent US20110256557A1, “IDENTIFYING PARATHYROID HORMONE AGONISTS AND ANTAGONISTS” (DISCOVERYBIOMED, INC., priority 2008, published 2011)
